Assay results reported in US8871909B2, “Antibodies inhibiting c-Met dimerization and uses thereof” (Pierre Fabre Medicament, priority 2007, dated 2014).

Target: T1, recombinant c-Met-Extra-Cellular Domain (ECD) fused to an human IgG Fc domain (Homo sapiens, UniProt P08581)
T1 construct: recombinant c-Met-Extra-Cellular Domain (ECD) fused to an human IgG Fc domain (R&D Systems) as antigen; purchased R&D Systems
Test: Determination of affinity constants (KD) by Biacore analysis
Format: binding
Conditions: first column; Fab fragments, 25° C.
Excerpt: The binding affinity of purified 11E1 and 224G11 antibodies was investigated by BIAcore X using recombinant c-Met-Extra-Cellular Domain (ECD) fused to an human IgG Fc domain (R&D Systems) as antigen (MW=129 kDa). As both c-Met-Fc fusion proteins and antibodies are bivalent compounds, Fab fragments of mAbs 11E1 and 224G11 (MW=50 kDa) were generated by papain cleavage, purified and used in this assay to avoid interference with avidity parameter. For the assay, an anti-Tag histidine capture antibody was coated on CM5 sensorchips. The running buffer was HBS-EP, the flow rate was 30 μl/min and the test was performed at 25° C. Soluble c-Met (ECD_M1)2-Fc-(HHHHHH)2 antigen was captured on the sensorchip (around 270 RU), and the antibodies to be tested were used in solution as analytes. The sensorship was regenerated using Glycine, HCl pH 1.5 buffer on both flowcells for half a minute.

T1 sequence (P08581 25-932 limits assumed): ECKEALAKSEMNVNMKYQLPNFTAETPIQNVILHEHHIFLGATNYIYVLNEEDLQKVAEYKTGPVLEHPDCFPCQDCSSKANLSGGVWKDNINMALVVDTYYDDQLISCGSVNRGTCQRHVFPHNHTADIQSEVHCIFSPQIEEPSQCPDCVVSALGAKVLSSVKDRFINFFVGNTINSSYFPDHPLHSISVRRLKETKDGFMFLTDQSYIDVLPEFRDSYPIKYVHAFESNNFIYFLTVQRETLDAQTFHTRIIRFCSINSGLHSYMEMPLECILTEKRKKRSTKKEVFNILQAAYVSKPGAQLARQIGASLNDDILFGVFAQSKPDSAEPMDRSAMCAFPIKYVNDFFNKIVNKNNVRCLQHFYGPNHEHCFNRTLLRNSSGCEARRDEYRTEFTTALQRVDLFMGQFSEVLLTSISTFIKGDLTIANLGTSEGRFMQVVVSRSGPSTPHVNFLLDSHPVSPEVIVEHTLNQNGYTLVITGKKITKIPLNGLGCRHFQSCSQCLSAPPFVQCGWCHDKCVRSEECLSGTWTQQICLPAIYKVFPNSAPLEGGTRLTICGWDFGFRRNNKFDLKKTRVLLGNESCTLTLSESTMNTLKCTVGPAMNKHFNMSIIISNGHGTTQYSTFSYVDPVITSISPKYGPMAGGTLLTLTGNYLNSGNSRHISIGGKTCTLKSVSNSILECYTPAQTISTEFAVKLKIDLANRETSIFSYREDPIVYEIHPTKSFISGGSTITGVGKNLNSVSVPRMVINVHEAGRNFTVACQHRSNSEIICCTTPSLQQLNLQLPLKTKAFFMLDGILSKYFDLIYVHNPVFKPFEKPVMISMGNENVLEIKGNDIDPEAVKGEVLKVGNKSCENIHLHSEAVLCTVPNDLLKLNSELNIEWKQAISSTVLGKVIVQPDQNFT

Row | Molecule | Kon1 × 10^−6 [1/M · s]
1 | 224G11 Fab: Fab fragment of mAb 224G11 generated by papain cleavage (antibody, V domains shown) VH: EVQLQQSGPELVKPGASVKISCKTSGYIFTAYTMHWVRQSLGESLDWIGGIKPNNGLANYNQKFKGKATLTVDKSSSTAYMDLRSLTSEDSAVYYCARSEITTEFDYWGQGTALTVSS VL: DIVLTQSPASLAVSLGQRATISCRASESVDSYANSFMHWYQQKPGQPPKLLIYRASNLESGIPARFSGSGSRTDFTLTINPVEADDVATYYCQQSKEDPLTFGSGTKLEMK | 2.04 ± 0.01 × 10^−6 [1/M · s]
2 | 11E1 Fab: Fab fragment of mAb 11E1 generated by papain cleavage (antibody, V domains shown) VH: QVQLQQSGAELAKPGASVKMSCKASGYTFTSYWMNWVKQRPGQGLEWIGYINPTTGSTDYNQKLKDKATLTADKSSNTAYMQLSSLTSEDSAVYYCAIGGYGSWFAYWGQGTLVTVSA VL: QIVLTQSPAIMSASPGEKVTLTCSASSSVSSTYLYWYQQKPGSSPKLWIYTTSILASGVPARFSGSGSGTSYSLTISSMETEDAASYFCHQWSSYPFTFGSGTKLDIK | 1.13 ± 0.01 × 10^−6 [1/M · s]
